{
  "source": "patent US20070036796A1",
  "biological_target": "human CCR5 (human) (UniProt P51681)",
  "sequence (P51681 whole entry)": "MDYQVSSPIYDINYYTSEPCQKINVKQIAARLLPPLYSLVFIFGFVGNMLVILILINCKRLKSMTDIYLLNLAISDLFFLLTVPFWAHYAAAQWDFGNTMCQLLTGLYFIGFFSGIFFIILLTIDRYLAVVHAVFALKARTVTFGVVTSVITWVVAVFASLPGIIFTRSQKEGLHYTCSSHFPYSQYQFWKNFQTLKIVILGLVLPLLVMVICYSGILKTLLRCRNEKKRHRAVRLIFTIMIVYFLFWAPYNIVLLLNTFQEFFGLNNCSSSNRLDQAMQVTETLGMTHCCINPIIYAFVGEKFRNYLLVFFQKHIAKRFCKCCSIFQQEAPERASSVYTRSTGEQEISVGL",
  "experiment": "cell-based or functional assay",
  "data": [
    {"substance": "Pharmingen 2D7 (CD 195; Cat. Nr. 555990) (antibody)", "values": [
      {"measurement": "IC50, PhenoSenseHIV assay (ViroLogic) using JRCSF strain", "value": 1.4, "unit": "µg/ml"},
      {"measurement": "IC50, inhibition of HIV growth in human PBMC, JRCSF (p24 ELISA)", "value": 0.271, "unit": "µg/mL"},
      {"measurement": "IC50, inhibition of HIV growth in human PBMC, Nl-Bal (p24 ELISA)", "value": 0.076, "unit": "µg/mL"}
    ]}
  ]
}
